The source of these data is patent US20190106460A1 (published 2019).

B1: Ts-dEGF(3Cl)WE(Me)-NH2 (peptide)
peptide: Tos-[dD]EG[Phe(3-Cl)]W[E(Me)]-NH2
notes: also called UBP033
B2: 4-(MeO)-PhSO2-DEGF(3F)WE-NH2 (peptide)
peptide: {Benzenesulfonyl(4-OMe)}-DEG[Phe(3-F)]WE-NH2
SMILES: COc1ccc(S(=O)(=O)N[C@@H](CC(=O)O)C(=O)N[C@@H](CCC(=O)O)C(=O)NCC(=O)N[C@@H](Cc2cccc(F)c2)C(=O)N[C@@H](Cc2c[nH]c3ccccc23)C(=O)N[C@@H](CCC(=O)O)C(N)=O)cc1
notes: also called UBP026
B3: 4-(BuO)-PhSO2-dEGF(3F)WE-NH2 (peptide)
peptide: {4‑(BuO)‑PhSO2}-[dD]EG[Phe(3-F)]WE-NH2
notes: also called UBP030
B4: 3,4-(MeO)2-PhSO2-dEGF(3F)WE-NH2 (peptide)
peptide: {3,4‑(MeO)2‑PhSO2}-[dD]EG[Phe(3-F)]WE-NH2
SMILES: COc1ccc(S(=O)(=O)N[C@H](CC(=O)O)C(=O)N[C@@H](CCC(=O)O)C(=O)NCC(=O)N[C@@H](Cc2cccc(F)c2)C(=O)N[C@@H](Cc2c[nH]c3ccccc23)C(=O)N[C@@H](CCC(=O)O)C(N)=O)cc1OC
notes: also called UBP029
B5: Suc-EG-1Nal-F(4NO2)-E-NH2 (peptide)
peptide: Suc-EG[1Nal][Phe(4-NO2)]E-NH2
B6: Suc-EG-1Nal-Y(Me)-E-NH2 (peptide)
peptide: Suc-EG[1Nal][Tyr(Me)]E-NH2
B7: Suc-EG-F(3F)-F(3F)-NH2 (peptide)
peptide: Suc-EG[Phe(3-F)][Phe(3-F)]-NH2
SMILES: NC(=O)[C@H](Cc1cccc(F)c1)NC(=O)[C@H](Cc1cccc(F)c1)NC(=O)CNC(=O)[C@H](CCC(=O)O)NC(=O)CCC(=O)O
B8: Suc-QGYF-NH2 (peptide)
peptide: Suc-QGYF-NH2
SMILES: NC(=O)CC[C@H](NC(=O)CCC(=O)O)C(=O)NCC(=O)N[C@@H](Cc1ccc(O)cc1)C(=O)N[C@@H](Cc1ccccc1)C(N)=O
B9: Suc-EGY-F(4NO2)-NH2 (peptide)
peptide: Suc-EGY[Phe(4-NO2)]-NH2
SMILES: NC(=O)[C@H](Cc1ccc([N+](=O)[O-])cc1)NC(=O)[C@H](Cc1ccc(O)cc1)NC(=O)CNC(=O)[C@H](CCC(=O)O)NC(=O)CCC(=O)O
B10: Suc-EGYF-NH2 (peptide)
peptide: Suc-EGYF-NH2
B11: Suc-EGY-F(4F)-NH2 (peptide)
peptide: Suc-EGY[Phe(4-F)]-NH2
SMILES: NC(=O)[C@H](Cc1ccc(F)cc1)NC(=O)[C@H](Cc1ccc(O)cc1)NC(=O)CNC(=O)[C@H](CCC(=O)O)NC(=O)CCC(=O)O
B12: Suc-EGY-F(3F)-NH2 (peptide)
peptide: Suc-EGY[Phe(3-F)]-NH2
SMILES: NC(=O)[C@H](Cc1cccc(F)c1)NC(=O)[C@H](Cc1ccc(O)cc1)NC(=O)CNC(=O)[C@H](CCC(=O)O)NC(=O)CCC(=O)O
B13: Suc-EGFF-NH2 (peptide)
peptide: Suc-EGFF-NH2
SMILES: NC(=O)[C@H](Cc1ccccc1)NC(=O)[C@H](Cc1ccccc1)NC(=O)CNC(=O)[C@H](CCC(=O)O)NC(=O)CCC(=O)O
B14: Suc-βE-GYFE-NH2 (peptide)
peptide: Suc-[βE]GYFE-NH2
modifications: not fully specified; printed as Suc-βE-GYFE-NH2
B15: Suc-EG-F(4Br)-F(3F)-NH2 (peptide)
peptide: Suc-EG[Phe(4-Br)][Phe(3-F)]-NH2
SMILES: NC(=O)[C@H](Cc1cccc(F)c1)NC(=O)[C@H](Cc1ccc(Br)cc1)NC(=O)CNC(=O)[C@H](CCC(=O)O)NC(=O)CCC(=O)O
B16: Ga-EGFFE-NH2 (peptide)
peptide: Glutaryl-EGFFE-NH2
B17: Suc-EGF-Y(Me)-E(OMe)-NH2 (peptide)
peptide: Suc-EGF[Y(Me)][E(OMe)]-NH2
SMILES: COC(=O)CC[C@H](NC(=O)[C@H](Cc1ccc(OC)cc1)NC(=O)[C@H](Cc1ccccc1)NC(=O)CNC(=O)[C@H](CCC(=O)O)NC(=O)CCC(=O)O)C(N)=O
B18: Suc-EG-F(4NO2)-F(4NO2)-NH2 (peptide)
peptide: Suc-EG[Phe(4-NO2)][Phe(4-NO2)]-NH2
SMILES: NC(=O)[C@H](Cc1ccc([N+](=O)[O-])cc1)NC(=O)[C@H](Cc1ccc([N+](=O)[O-])cc1)NC(=O)CNC(=O)[C@H](CCC(=O)O)NC(=O)CCC(=O)O
B19: Suc-EG-F(4Br)-F-NH2 (peptide)
peptide: Suc-EG[Phe(4-Br)]F-NH2
SMILES: NC(=O)[C@H](Cc1ccccc1)NC(=O)[C@H](Cc1ccc(Br)cc1)NC(=O)CNC(=O)[C@H](CCC(=O)O)NC(=O)CCC(=O)O
B20: Phth-EGFFE-NH2 (peptide)
peptide: Phth-EGFFE-NH2
B21: Suc-EGFFE-NH2 (peptide)
peptide: Suc-EGFFE-NH2
SMILES: NC(=O)[C@H](CCC(=O)O)NC(=O)[C@H](Cc1ccccc1)NC(=O)[C@H](Cc1ccccc1)NC(=O)CNC(=O)[C@H](CCC(=O)O)NC(=O)CCC(=O)O
notes: also called UBP002; succ-EGFFE

The term Kd denotes the free concentration of one partner at which half of the binding sites on the other are occupied at equilibrium, for simple one-to-one binding. Low readings indicate a tighter complex, high ones a looser complex. The term IC50 denotes the concentration that inhibits the measured activity by half. A higher IC50 goes with weaker potency.

Where “and” joins values, the source holds several entries; their conditions need not be identical. Equal entries are not always repeated. Starred links: 1 amine or outer side, 2 acyl side, 3 side chain; linkers in the order of their positions; H or OH if unused. Non-standard residues stand in square brackets, D forms with d. *: point of attachment. Tyr(Me) = O-methyl-L-tyrosine, COc1ccc(C[C@H](N[*:1])C(=O)[*:2])cc1; Phe(4-NO2) = N[C@@H](Cc1ccc([N+](=O)[O-])cc1)C(=O)O; Benzenesulfonyl(4-OMe) = COc1ccc(S(=O)(=O)*)cc1; Y(Me) = COc1ccc(C[C@H](N[*:1])C(=O)[*:2])cc1; 3,4‑(MeO)2‑PhSO2 = COc1ccc(S(=O)(=O)*)cc1OC; 4‑(BuO)‑PhSO2 = CCCCOc1ccc(S(=O)(=O)*)cc1; E(OMe) = COC(=O)CC[C@H](N[*:1])C(=O)[*:2]; E(Me) = COC(=O)CC[C@H](N[*:1])C(=O)[*:2]; Phe(3-Cl) = N[C@@H](Cc1cccc(Cl)c1)C(=O)O; Phe(4-Br) = N[C@@H](Cc1ccc(Br)cc1)C(=O)O; Phe(3-F) = N[C@@H](Cc1cccc(F)c1)C(=O)O; Phe(4-F) = N[C@@H](Cc1ccc(F)cc1)C(=O)O; 1Nal = N[C@@H](Cc1cccc2ccccc12)C(=O)O; Glutaryl = O=C(CCCC(=O)[*:2])[*:1]; Suc = O=C(CCC(=O)[*:2])[*:1]; Tos = Cc1ccc(S(=O)(=O)*)cc1; βE = a beta form of Glu

T1 sequence (Q9Y297 175-605, chain 1 of 2): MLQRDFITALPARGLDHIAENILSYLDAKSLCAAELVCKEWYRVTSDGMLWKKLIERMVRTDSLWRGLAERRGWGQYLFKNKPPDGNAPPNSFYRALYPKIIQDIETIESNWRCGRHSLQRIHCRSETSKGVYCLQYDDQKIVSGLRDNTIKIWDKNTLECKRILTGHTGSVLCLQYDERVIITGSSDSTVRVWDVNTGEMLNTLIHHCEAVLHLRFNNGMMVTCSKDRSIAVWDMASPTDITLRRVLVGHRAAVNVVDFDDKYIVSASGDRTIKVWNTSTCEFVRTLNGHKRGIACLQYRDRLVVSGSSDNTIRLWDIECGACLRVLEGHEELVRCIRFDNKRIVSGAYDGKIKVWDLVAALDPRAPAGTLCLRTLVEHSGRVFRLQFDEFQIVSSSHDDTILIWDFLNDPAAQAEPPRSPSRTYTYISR
T1 sequence (P63208 whole entry, chain 2 of 2): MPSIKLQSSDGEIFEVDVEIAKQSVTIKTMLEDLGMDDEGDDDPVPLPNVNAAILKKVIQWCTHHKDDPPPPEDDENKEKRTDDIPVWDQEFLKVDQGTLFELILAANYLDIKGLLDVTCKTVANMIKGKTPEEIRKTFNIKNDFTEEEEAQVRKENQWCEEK

The first assay addresses T1, HisβTrCP/Skp1 and HisβTrCP/GSTSkp1 (immobilised on NTA Biacore chip) (UniProt Q9Y297 175-605; P63208 1-163).
T1 construct: SPR: KD values from both surfaces (with or without the GST moiety) were averaged to give the apparent KD; also called βTrCP surfaces
The assay is described as follows: SPR (Biacore T200), single cycle run up to 1e-6 M, steady-state fit of the run shown; Rmax 2.093 RU, Chi² 0.0110 RU² [A]. From the text: (§1) As βTrCP was His tagged, an NTA sensor chip was used. This sensor chip has a dextran surface matrix with immobilized nitrilotriacetic acid (NTA) which provides a means of capturing polyHis-tagged proteins through Nickel chelation. It was hoped that addition of Ni⁺ would orient the protein in a specific (and hopefully active) manner as it is covalently immobilised via amine coupling. Addition of EDC:NHS (N-ethyl-N′-(3-[…])-carbodiimide:N-hydroxysuccinimide) converts carboxyl groups on the dextran sensor chip surface to succinamide esters which readily form covalent bonds with primary amines. Each chip contains four flow cells (each a separate surface) which means that compounds/peptides can be passed over different forms of βTrCP and a reference surface simultaneously. If binding to βTrCP is occurring, responses should be the same (accounting for differences in density of surface etc) on each surface.
Small molecule/peptide samples to be assayed for binding to βTrCP surfaces, were provided as 10 mM stocks in 100% DMSO. All samples were tested in running buffer composed of 10 mM HEPES pH 7.4, 150 mM NaCl, 50 μM EDTA, 0.005% p20, and 1% DMSO. Serial dilutions were made using running buffer. […] KD values calculated from binding curves from both surfaces (with or without the GST moiety) were averaged to produce apparent KD's for each sample tested.
Turning to B1, the Kd was 0.0216 µM.

The target in a further assay is T2, βTrCP (tag cleaved and complexed with Skp1) (UniProt Q9Y297 175-605; P63208 1-163).
T2 construct: Protein of the FP assay (0.035 µM); also called Beta Transducin repeat-containing protein; βTrCP/Skp1
The experiment in a line: FP competition vs fluorescein-IκB peptide.
In the case of B2, the IC50 is 0.027 µM.
B3 yielded an IC50 of 0.056 µM. Compared with the last molecule, the IC50 is about 2.1-fold higher.
The molecule B4 came in with an IC50 of 0.042 µM.
The same measure, in the same setting: the same measure for B1: 0.017 µM.

Another assay concerns the target T1, HisβTrCP/Skp1 and HisβTrCP/GSTSkp1 …. The assay is described as follows: SPR, Biacore T200, βTrCP/Skp1 immobilised.
Text: as §1
Small molecule/peptide samples to be assayed for binding to βTrCP surfaces, were provided as 10 mM stocks in 100% DMSO. All samples were tested in running buffer composed of 10 mM HEPES pH 7.4, 150 mM NaCl, 50 μM EDTA, 0.005% p20, and 1% DMSO. Serial dilutions were made using running buffer. Samples were tested over varying concentrations up to a maximum of 100 μM. Two methods of measuring the SPR response were employed: single cycle kinetics which measures the response across different concentrations of sample within a single cycle (no regeneration of surface) and a method that measures the response at a given concentration in each cycle and includes a regeneration wash after each sample injection. The regeneration solution used was the same as running buffer, but included 500 mM NaCl. Data was fitted using Biacore T200 evaluation software. KD values calculated from binding curves from both surfaces (with or without the GST moiety) were averaged to produce apparent KD's for each sample tested.
On to B2, for which the Kd was 0.495 µM.
B3 registered a Kd of 0.767 µM.
As for B4, the Kd was 0.603 µM.
In turn, B1 displayed a Kd of 0.047 µM.

The next assay has as its target T2, βTrCP (tag cleaved and complexed with …). The assay is described as follows: FP competition vs fluorescein-IκB peptide. The source holds these as a separate data set.
Take B5: the IC50 is 68 µM.
Consider B6, for which the IC50 turned out to be 5.4 µM.
Still for that read-out and setting: the figure for B7 is 44 µM; for B8 it is 49 µM.
Consider B9, for which the IC50 came to 91 µM.
B10 yielded an IC50 of 31 µM. Compared with the last molecule, the IC50 is about 2.9-fold lower.
B11 showed a concentration for half-maximal inhibition (IC50) of 71 µM. Compared with the last molecule, the IC50 is about 2.3-fold higher.
Consider B12, for which the IC50 turned out to be 91 µM.
Regarding B13, the IC50 turned out to be 46 µM.
B14 showed an IC50 of 30 µM.
B15 registered an IC50 of 81 µM. Against the preceding molecule, the IC50 is about 2.7-fold higher.
Regarding B16, the IC50 came to 65 µM.
Consider B17, for which the IC50 was determined as 71 µM.
As for B18, the IC50 is 78 µM.
Still for that read-out and setting: the figure for B19 is 38 µM and 39 µM.

In the next assay the target is T3, βTrCP (tag cleaved and complexed with Skp1) (UniProt Q9Y297 175-605; P63208 1-163).
T3 construct: Protein of the fluorescence polarisation assay, 0.035 µM; also called Beta Transducin repeat-containing protein; βTrCP/Skp1
The experiment in a line: FP competition, 10 nM fluorescein-IκB peptide on βTrCP/Skp1. How it is done: Binding of the compounds to βTrCP was assessed using a fluorescence polarisation (FP) binding assay. The FP assay is an in vitro binding assay using a fluorescein-tagged IkB peptide at 10 nM to mimic substrate binding to βTrCP, and was performed as described above.
Four sequences were selected for re-synthesis and testing in the FP assay, which was performed as described above along with 4 negative controls.
As for B20, the IC50 was 10.9 µM.
Still for that read-out and setting: the figure for B21 is 3.18 µM.

Another assay addresses T2, βTrCP (tag cleaved and complexed with …). The experiment in a line: FP competition vs fluorescein-IκB peptide. This is another data set of the same source.
In turn, B2 showed an IC50 of 0.027 µM.
Regarding B3, the IC50 came out at 0.056 µM. This IC50 is about 2.1-fold higher than that of the molecule before.
As for B4, the IC50 stood at 0.042 µM.
With B1, the IC50 was 0.017 µM. This IC50 is about 2.5-fold lower than that of the molecule before.

The target in another assay is Fbw7 (UniProt Q969H0 263-707, limits assumed). The experiment in a line: cell-based or functional assay.
Chain of Fbw7 (Q969H0 263-707 limits assumed): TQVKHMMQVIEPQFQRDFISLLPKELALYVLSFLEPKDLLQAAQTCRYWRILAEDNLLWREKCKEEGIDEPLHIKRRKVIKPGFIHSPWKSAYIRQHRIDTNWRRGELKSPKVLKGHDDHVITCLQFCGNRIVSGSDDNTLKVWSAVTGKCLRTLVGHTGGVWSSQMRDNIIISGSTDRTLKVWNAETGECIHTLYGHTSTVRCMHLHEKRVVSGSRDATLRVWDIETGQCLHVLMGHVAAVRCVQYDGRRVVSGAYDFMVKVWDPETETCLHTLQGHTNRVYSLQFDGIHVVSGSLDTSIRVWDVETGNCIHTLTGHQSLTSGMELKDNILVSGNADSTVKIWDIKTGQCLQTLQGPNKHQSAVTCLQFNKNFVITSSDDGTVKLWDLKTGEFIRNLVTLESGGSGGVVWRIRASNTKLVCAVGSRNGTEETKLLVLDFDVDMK
With B2, the “% Inhibition Fbw7 @ 10 µM” value came to 0% and the “% Inhibition Fbw7 @ (100 µM)” value was 8%.
For B3, the “% Inhibition Fbw7 @ 10 µM” value came to 7% and the “% Inhibition Fbw7 @ (100 µM)” value worked out at 12%.
On to B4, for which the “% Inhibition Fbw7 @ 10 µM” value turned out to be 2% and the “% Inhibition Fbw7 @ (100 µM)” value worked out at 0%.
For B1, the “% Inhibition Fbw7 @ 10 µM” value came out at 7% and the “% Inhibition Fbw7 @ (100 µM)” value stood at 11%.

For the next assay, the target named is Skp2 (UniProt Q13309 1-424, limits assumed). The assay is described as follows: cell-based or functional assay.
Chain of Skp2 (Q13309 whole entry): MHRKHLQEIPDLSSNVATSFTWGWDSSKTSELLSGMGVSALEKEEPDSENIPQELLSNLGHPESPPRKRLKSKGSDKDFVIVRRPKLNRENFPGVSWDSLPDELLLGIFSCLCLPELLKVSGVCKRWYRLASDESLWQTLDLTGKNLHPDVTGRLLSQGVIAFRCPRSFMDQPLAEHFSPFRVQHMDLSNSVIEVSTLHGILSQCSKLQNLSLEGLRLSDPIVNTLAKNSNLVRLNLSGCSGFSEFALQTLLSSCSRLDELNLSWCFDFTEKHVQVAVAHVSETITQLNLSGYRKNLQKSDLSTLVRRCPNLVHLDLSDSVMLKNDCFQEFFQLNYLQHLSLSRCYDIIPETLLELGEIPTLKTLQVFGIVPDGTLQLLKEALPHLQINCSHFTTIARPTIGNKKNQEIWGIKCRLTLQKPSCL
Consider B2, for which the “% Inhibition Skp2 @ 10 µM” value amounted to 15% and the “% Inhibition Skp2 @ (100 µM)” value was determined as 3%.
For B3, the “% Inhibition Skp2 @ 10 µM” value turned out to be 0% and the “% Inhibition Skp2 @ (100 µM)” value was 13%.
For B4, the “% Inhibition Skp2 @ 10 µM” value stood at 19% and the “% Inhibition Skp2 @ (100 µM)” value came to 19%.
On to B1, for which the “% Inhibition Skp2 @ 10 µM” value was 0% and the “% Inhibition Skp2 @ (100 µM)” value worked out at 10%.
